Legend:
[1] = tested on: Shh pathway; assay: Shh pathway expression (Gli1, N-Myc; Western Blot, real time Q-PCR) in GCP neurosphere cultures; assay type: cell-based, mouse; details: factor alone, FIG. 4
Procedure: (§1) After surgical resection from a mouse on the seventh day of postnatal life (P7) the cerebellum was mechanically shredded in a buffer containing HBSS, glucose and antibiotics, and DNase (at concentrations as defined above) and the individual cells thus obtained were counted and plated at a dilution of 16000 cells/cm^2 on a medium composed of DMEM-F12, glucose, Vitamin A-free B27, insulin, NALC, heparin, antibiotics (at concentrations as defined above) and SAG (200 nM) and EGF ([…]). On this medium the cells can be enriched and maintained for an unlimited time, after periodical dissociation of the spheres with Accutase® (2-3 times per week) and propagation by dilution (to prevent excessive growth and consequent death from nutrient deficiency and hypoxia). The reaction conditions were as described above.

[2] = tested on: GCP cells; assay: Clonogenicity / long-term propagation of GCP neurosphere cultures; assay type: cell-based, mouse
Procedure: as §1

B1: EGF: Epidermal Growth Factor (protein, UniProt P01133 23-1207, looked up)
Pro-epidermal growth factor: PQHWSCPEGTLAGNGNSTCVGPAPFLIFSHGNSIFRIDTEGTNYEQLVVDAGVSVIMDFHYNEKRIYWVDLERQLLQRVFLNGSRQERVCNIEKNVSGMAINWINEEVIWSNQQEGIITVTDMKGNNSHILLSALKYPANVAVDPVERFIFWSSEVAGSLYRADLDGVGVKALLETSEKITAVSLDVLDKRLFWIQYNREGSNSLICSCDYDGGSVHISKHPTQHNLFAMSLFGDRIFYSTWKMKTIWIANKHTGKDMVRINLHSSFVPLGELKVVHPLAQPKAEDDTWEPEQKLCKLRKGNCSSTVCGQDLQSHLCMCAEGYALSRDRKYCEDVNECAFWNHGCTLGCKNTPGSYYCTCPVGFVLLPDGKRCHQLVSCPRNVSECSHDCVLTSEGPLCFCPEGSVLERDGKTCSGCSSPDNGGCSQLCVPLSPVSWECDCFPGYDLQLDEKSCAASGPQPFLLFANSQDIRHMHFDGTDYGTLLSQQMGMVYALDHDPVENKIYFAHTALKWIERANMDGSQRERLIEEGVDVPEGLAVDWIGRRFYWTDRGKSLIGRSDLNGKRSKIITKENISQPRGIAVHPMAKRLFWTDTGINPRIESSSLQGLGRLVIASSDLIWPSGITIDFLTDKLYWCDAKQSVIEMANLDGSKRRRLTQNDVGHPFAVAVFEDYVWFSDWAMPSVMRVNKRTGKDRVRLQGSMLKPSSLVVVHPLAKPGADPCLYQNGGCEHICKKRLGTAWCSCREGFMKASDGKTCLALDGHQLLAGGEVDLKNQVTPLDILSKTRVSEDNITESQHMLVAEIMVSDQDDCAPVGCSMYARCISEGEDATCQCLKGFAGDGKLCSDIDECEMGVPVCPPASSKCINTEGGYVCRCSEGYQGDGIHCLDIDECQLGEHSCGENASCTNTEGGYTCMCAGRLSEPGLICPDSTPPPHLREDDHHYSVRNSDSECPLSHDGYCLHDGVCMYIEALDKYACNCVVGYIGERCQYRDLKWWELRHAGHGQQQKVIVVAVCVVVLVMLLLLSLWGAHYYRTQKLLSKNPKNPYEESSRDVRSRRPADTEDGMSSCPQPWFVVIKEHQDLKNGGQPVAGEDGQAADGSMQPTSWRQEPQLCGMGTEQGCWIPVSSDKGSCPQVMERSFHMPSYGTQTLEGGVEKPHSLLSANPLWQQRALDPPHQMELTQ
modifications: Pro-epidermal growth factor
expression of markers typical of GCP [1]: does not express the markers typical of GCP | proliferative power of GCP cells [2]: ensures its unlimited proliferative power
